Laboratory results published in the nanobody polyreactivity screen of Harvey et al. (2022).

Assay: yeast display, Sf9 membrane polyspecificity reagent, FACS + sequencing; frameworks hold sequencing errors
Method in brief: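 Galactose induction of a Saccharomyces cerevisiae BJ5465 synthetic nanobody display library ran 36–48 hours. The cells were then stained for 1 hour at 4 °C with 10% biotinylated, detergent-solubilized Sf9 membrane reagent, pulled down on streptavidin microbeads and FACS-sorted into low and high (top ~1%) gates on expression and reagent-binding fluorescence. Labels for polyreactivity follow the gate of origin.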

Row | Sequence | polyreactivity (PSR sort gate)
1 | QVQLVESGGGLVQAGGSLRLSCAASGRPFYVYAMGWYRQAPGKERELVASIRRSGGITYYADSVKGRFTISRDNAKNTVYLQMNSLKPEDTAVYYCNARRGPGRREYDYWGQGTQVTVSS | high polyreactivity
2 | QVQLVESGGGLVQAGGSLRLSCAASGRRFVKYAMGWYRQAPGKERELVAAITKSGSSTYYSDSVKGRFTISRDNAKNTVYLQMNSLKPEDTAVYYCAALTISRSRTGYYWGQGTQVTVSS | low polyreactivity
3 | QVQLVESGGGLVQAGGSLRLSCAASGRSFAWYTMGWYRQAPGKERELVAAISGSGGSTYYADSVKGRFTISRDNAKNTVYLQMNSLKPEDSALYYGARRVDSYYGHTRFYYWGQGTQVTVSS | high polyreactivity
4 | QVQLVESGGGLVQAGGSLRLSCAASGRSFGTYAMGWYRQAPGKERELVAAISRSGGRTYYADSVKGRFTISRDNAKNTVYLQMNSLKPEDTAVYYCAAATGSVPPYDYWGQGTQVTVSS | high polyreactivity
5 | QVQLVESGGGLVQAGGSLRLSCAASGRSFVGNAMGWYRQAPGKERELVASITRGGRTNYADSVNGRFTISRDNAKNTVYLQMNSLKPEDTAVYYCNAPGVTRAYLVGYDYWGQGTQVTVSS | low polyreactivity
6 | QVQLVESGGGLVQAGGSLRLSCAASGRSIVGYTMGWYTQAPGKERELVAAITSGGSTYYADSVKGRFTISRDNAKNTVYLQMISLKPEDTAVYYCSAYVRYSTPGKLYQYGYWGQGTQVTVSS | high polyreactivity
7 | QVQLVESGGGLVQAGGSLRLSCAASGRSLRGYAMGWYRQAPGKERELVAAISRRGGSTRYADSVKGRFTISRDNAKNTVYLQMNSLKPEDTAVYYCAAPDFPKYYPTAYLQADEYWGQGTQVTVSS | high polyreactivity
8 | QVQLVESGGGLVQAGGSLRLSCAASGRTCPYYVMGWFRQAPGKERELVAAIRRTGGSTYYADSVKGRFTISRDNAKNTVYLQMNSLKPEDTAVYYFTKSHSILYEGGYDYWGQGTQVTVSS | low polyreactivity
9 | QVQLVESGGGLVQAGGSLRLSCAASGRTCRHNAMGWYRQAPGTERELVAAISSSGTNTHYADSVKGRFTISRDNAKNTVYLQMNSLKPEDTAVYYCAADRWGARRKQYHENGYWAQGTQVTVSS | high polyreactivity
10 | QVQLVESGGGLVQAGGSLRLSCAASGRTFAANTMGWYRQAPGKERELVAAINAGGSTYYADSVKGRFTISRDTAKNTVYLQMNSLKPEDTAVYYCAAKGSGYYGRQRIYSYTYDYWGQGTQVTVSS | high polyreactivity
11 | QVQLVESGGGLVQAGGSLRLSCAASGRTFAAYAMGWYRQAPGKERELGAAISSSSGNTYYADSVKGRFTISRDNAKNTVYLQMYSLKPEDTAVYYCNAQRRFNANYWYDYWGQGTQVTVAS | high polyreactivity
12 | QVQLVESGGGLVQAGGSLRLSCAASGRTFAAYAMGWYRQAPGKERELVATIRRGGTTDYADSVKGRFTISRDNAKNTVYLQMNSLKPEDTAVYYCNARSRTYRTRRYDYWGQGTQVTVSS | high polyreactivity
13 | QVQLVESGGGLVQAGGSLRLSCAASGRTFAHYTMGWYRQEPGKERELVAGITRGGSTYYADSVKGRFTISRDNAKNNVYLQMNSVKPEDTAVYYCNAVTNYFYRRMEYWGQGTQVTVSS | high polyreactivity
14 | QVQLVESGGGLVQAGGSLRLSCAASGRTFAINAMGWYRQATAKERELVADITTDGYTYYADSVKGRFTISRDNAKNTVYLQMNSLKPEDTAVYYCATDSLDYFIRFKQFGYWGQGTQVTVSS | low polyreactivity
15 | QVQLVESGGGLVQAGGSLRLSCAASGRTFAINTMGWYRQAPGKEREFVASITRRGGSTYYADSVKVRFTISLDNAKNTVYFQMNSLKPEDTAVYYCNAELRWRLRARAAYYYWGQGSQVTVSS | high polyreactivity
16 | QVQLVESGGGLVQAGGSLRLSCAASGRTFAIYAMGWYRQAPGKERELVASISSSGDRTYYADSVKGRFTISRDNAKNTVYLQMNSLKPEDTAVYYCAARWRYTYYYWGQGTQVTVSS | high polyreactivity
17 | QVQLVESGGGLVQAGGSLRLSCAASGRTFAIYTMVWSRQAPGKERELVATISGSAGNTYYADSVKGRFTISRDNAKNTVYLQMNSLKPEDTAVYNCAARQRKARQIVLLDYWGQGTQVTVSS | high polyreactivity
18 | QVQLVESGGGLVQAGGSLRLSCAASGRTFALYAMGWYRQAPGKERELVAAISSGGSTYYADSVKGRFTISRDNAKNTVYLQMNSLKPEDTAVYYCNARPKWGNRQSVRGYYILSPGGRMNYWGQGTQVTVSS | high polyreactivity
19 | QVQLVESGGGLVQAGGSLRLSCAASGRTFANNAMGWYRQAPGKERELVAAISSSDDSTYYADSVKGRFTISRDNAKNTVYLQMNILKPEDTAVYYCAAPYPGHQSRFGYESWGQGTQVTVSS | low polyreactivity
20 | QVQLVESGGGLVQAGGSLRLSCAASGRTFANYAMGWSRQAPGKERELVAAISSGGNTYYADSVKGRFTISRDNAKNTVYLQMNSLKPEDTSVYYCNADYLIKYDYWGKGTQVTVSS | high polyreactivity
21 | QVQLVESGGGLVQAGGSLRLSCAASGRTFANYAMGWYRQAPGKERELVATITWSDGSTYADSVKGRFTISRDNAKNTVYLQMNSLKPEDTAVYYCATRRYGKVFYPSQYTRYDYWGQGTQVTVSS | high polyreactivity

Row | Sequence | polyreactivity (PSR sort gate)
22 | QVQLVESGGGLVQAGGSLRLSCAASGRTFAPNAMGWYRQAPGKEREMVAAISWSGTSTYYADSVKGRFTISRDNAKNTVYLQMNSLKPEDTAVYYCAADLEGSVGSPLTYDYWGQGTQVTVSS | low polyreactivity
23 | QVQLVESGGGLVQAGGSLRLSCAASGRTFAPNTMGWYRQAPGKERELVATITVSGGITYADSVKGRFTISRDNAKNTVYLQMNSLKPEDTAVYYCAARTPGWYLPRDYWGQGTQVTVSS | low polyreactivity
24 | QVQLVESGGGLVQAGGSLRLSCAASGRTFAQYGMGWYRQAPGKERELVAAISRSGGRTYYADSVKGRFTISRDNAKNTVYLQMNSLKPEDTAVYYCAARAYLISSSTPFWTGYDSWGHGTQVTVSS | low polyreactivity
25 | QVQLVESGGGLVQAGGSLRLSCAASGRTFARYAKGWYRQAPGKERELVAVISRTGSTYYADSVKGRFTISRDNAKNTVYLQMNSLKPEDTAVYYCATVYYYLAYGWSYSDMDYWGQGTQVTVSS | high polyreactivity
26 | QVQLVESGGGLVQAGGSLRLSCAASGRTFARYAMGWYRQAPGKERELVAAISWSGGRTYYADSVKGRFTISRDNAKNTVYLQMNSLKPEDTAVYYCAASLYRRQMDHWGQGTQVTVSS | high polyreactivity
27 | QVQLVESGGGLVQAGGSLRLSCAASGRTFARYDKGWYRQAPGKERELVAGINGDGGSTNYADSVKGRFTISRDNAKNTVYLQMNSLKPEDTAVFYCNVDQEDRKLHVSIKQLSDHWGQGTQVTVSS | low polyreactivity
28 | QVQLVESGGGLVQAGGSLRLSCAASGRTFASNAMGWSRQAPGKERELVAAISVTGGRTYYADSVKGRFTISRDNAKNTVYLLMNSLKPEDTAVYYCAKVTKLDPYSYDYWGQGTQVTVSS | low polyreactivity
29 | QVQLVESGGGLVQAGGSLRLSCAASGRTFASNAMGWYTQAPGKERELVAAITISGGRTYYADSVKGRFTISRDNAKNTVYLQMNSLIPEDTAVYYCAAAKHSWRPSYYWGGYWGQGTQVTVSS | low polyreactivity
30 | QVQLVESGGGLVQAGGSLRLSCAASGRTFASYAMGWYRQAPGKERELVAVISRGGSNTNYADSVTGRFTISRDNAKNTVYLQMNSLKPEDTAVYYCADLAFKRYNPGGYDYWGQGTQVTVSS | high polyreactivity
31 | QVQLVESGGGLVQAGGSLRLSCAASGRTFATYAMGWYRQAPGKERELVAAITSGGSTNYADSVKGRFTISRDNAKNTVYLQMNSLKPEDTAVYYCNAYKTNRGSGPWYTGRYDYWGQGTQVTVSS | low polyreactivity
32 | QVQLVESGGGLVQAGGSLRLSCAASGRTFAVNVMGWYIPAPGKERELVAAIDFDDGITYYADSVKGRFTISRDNAKNTVYLQMNSLKPEDTAVYYCAAEFVYFGSDYYYWGQGTQVTVSS | high polyreactivity
33 | QVQLVESGGGLVQAGGSLRLSCAASGRTFAWYAMGWYRQAPGKERELVAAITTRGSGTYYADSVKGRFTISRDNAKNTVYIQMNSLKPEDTAVYYCAKDPITVTTVDERVYYWGQGTQVTVSS | low polyreactivity
34 | QVQLVESGGGLVQAGGSLRLSCAASGRTFAWYAMGWYRQAPGKERELVAAITTRGSGTYYADSVKGRFTISRDNAKNTVYLQMNSLKPEDTAVYYCAKDPITATTLDERVFYWGQGTQVTVSS | low polyreactivity
35 | QVQLVESGGGLVQAGGSLRLSCAASGRTFAWYTMGWYRQAPGKERELVASITKRGGRTYYADSVKGRFTISRDNAKNTVYLQMNSLKPEDTAVYYCAAGASQGRGTVTFDYWGQGTQVTVSS | high polyreactivity
36 | QVQLVESGGGLVQAGGSLRLSCAASGRTFAYNAMGWYRQAPGKDRELVAAITRRGGSTYYADSVKGRFTISRDNAKNTVYLQMNSLKPEDTAVYDCAKVLGGLPHGEVLDEYDYWGQGTQVTVSS | low polyreactivity
37 | QVQLVESGGGLVQAGGSLRLSCAASGRTFAYNAMGWYRQAPGKERELVADITWSGDSTYYADSVKGRFTISRDNAKNTVYLQMNSLKPEDTAVYYCAADYFGGPSYEFDYWGQGTQVTVSS | low polyreactivity
38 | QVQLVESGGGLVQAGGSLRLSCAASGRTFAYTDMGWYRQAPGNERELVAAISWSDGTTYYADSVKGRFTISRDNAKNTVYLQMNSLKPEDTAVYYCAAESYPSEVASYVSEYDYWGQGTQVTVSA | low polyreactivity
39 | QVQLVESGGGLVQAGGSLRLSCAASGRTFAYYAMGWYRQAPGTERELVAGITYSGGRTYYADSVKGRFTISRDNAKNTVYLQMNSLKPEDTAVYYCATRWPSKPTSRAMYYWGQGTQVTVSS | high polyreactivity
40 | QVQLVESGGGLVQAGGSLRLSCAASGRTFDAYAMGRYRQAPGKERELVARITSGGSTKYADSVKGRFTISRDNAKNTVYLQMNSLKPEDTAVYYCAAAQYWPSFFSNRVYYRNDYWGQGTQVTVSS | high polyreactivity
41 | QVQLVESGGGLVQAGGSLRLSCAASGRTFDAYAMGWYRQAPGKERELVAAISSGGSTNYADSVKGRFTISRDHAKNTVYLQKNSLKPEDTAVYYCAAEYIQYLFYSVRVAYDYWGQGTQVTVSS | low polyreactivity
42 | QVQLVESGGGLVQAGGSLRLSCAASGRTFDAYAMGWYRQAPGKERELVATITSGGGTYYADSVKGRFTISRDNAKNTVYLQMNSLKPEDTAVYYCNISYVVSRKYDYWGQGTQVTVSS | low polyreactivity
